From the supplement of paper PMC10724198
± gives the standard deviation of the averaged measurements.

System: Saccharomyces cerevisiae
Experiment: protein stability index of tFT-peptide fusion (C-terminal peptide) (PSI (0-1 scale)); higher = more stable (slower turnover)
Conditions: genetic background: wild type; temperature: 30 C
Method: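 Multiplexed protein stability (MPS) profiling in S. cerevisiae. Random 12-aa peptides (tFT-X12 library) are fused to the C-terminus of a sfGFP-mCherry tandem fluorescent timer, after mCherry and a GGGS linker. Cells are FACS-sorted into 8 mCherry/sfGFP bins and deep-sequenced. The protein stability index (PSI) is the read-weighted bin average, scaled from 0 (unstable) to 1 (stable). Only peptides with >10 reads are reported; cells were grown at 30 °C in SC-His with glucose.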
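Note: PSI is a weighted mean of sequencing reads over stability bins, variants kept only with over 10 reads, mCherry proximal and sfGFP distal, peptide attached via GGGS linker.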

Sequence | protein stability index
VCAVRVGGGGEG | 0.601 ± 0.04
GVEGCKRAGKLR | 0.651 ± 0.033
HPPLPPPPIVPS | 0.696 ± 0.067
TYATPSLVFPLL | 0.695 ± 0.011
WAIYPDVESVIP | 0.773 ± 0.0081
GGWSIVQKRRGG | 0.7215 ± 0.0034
LAEFTCTQGCSY | 0.67 ± 0.088
PSVPSAAPPSSA | 0.703 ± 0.02
PAELGAGYVMGG | 0.699 ± 0.022
LFFRVLDRLGEI | 0.726 ± 0.021
KKLSSRTQGLHG | 0.746 ± 0.059
GLGGRAAQKCGQ | 0.688 ± 0.016
ERLRLVPRKGLL | 0.714 ± 0.048
PPHPSTPIPPPR | 0.672 ± 0.012
DLSCCVFLCLFF | 0.513 ± 0.044
WGGRSVGGVVWR | 0.714 ± 0.036
PLCLCCPIGIIS | 0.516 ± 0.008
PTVNIDSQSRSP | 0.692 ± 0.079
CLTTVCHRRVRC | 0.655 ± 0.075
WEQQTSLPLLSL | 0.712 ± 0.021
CLVGSLTDIAWL | 0.756 ± 0.028
HGLFGRACRASH | 0.66 ± 0.043
FRWLLVAGGWGE | 0.486 ± 0.024
FLFSYIEGSPNP | 0.721 ± 0.073
SCPAPAALPLPR | 0.674 ± 0.026

Sequence | protein stability index
GGWWVLCGGGWG | 0.567 ± 0.025
APPARSTPPPRP | 0.712 ± 0.045
LQCAVPPRDLTS | 0.645 ± 0.074
SPLLPPRSPPLP | 0.752 ± 0.032
VLKYSVQHREFS | 0.685 ± 0.019
PAPLRSPLVLPS | 0.721 ± 0.039
TFRHLRPPLRSR | 0.649 ± 0.037
YREPKISEMLQE | 0.621 ± 0.017
RAAQVFPHVLPR | 0.6726 ± 0.0022
PSSSYLSCLPSW | 0.703 ± 0.083
LDFSAWRYGRSW | 0.83 ± 0.038
SDSAPPPAALPH | 0.7263 ± 0.0029
PPPPPASPPSAP | 0.605 ± 0.063
QNLRLRKNIDIK | 0.76 ± 0.014
MVSMFRLFLGLV | 0.589 ± 0.016
LATIPTFPPLPP | 0.634 ± 0.089
APPLPPPPLDTS | 0.729 ± 0.011
GSVRCGLRVRVG | 0.605 ± 0.047
VWRGCRVGGQGM | 0.687 ± 0.042
AAPGMIFRDPAQ | 0.739 ± 0.18
NIKPEDRNSTNA | 0.633 ± 0.087
LSPPQRISLIPY | 0.659 ± 0.03
CGLRRFTGLAWS | 0.6372 ± 0.00093
LTNISKIKILRY | 0.653 ± 0.032
RRWIFGEGMSTY | 0.723 ± 0.058

Sequence | protein stability index
PLRSLPRPLSST | 0.65913 ± 0.00011
RLLYGIYDHGRQ | 0.731 ± 0.091
PLPIHSHPPPVP | 0.615 ± 0.0068
IILKEDKSIKKR | 0.6595 ± 0.0032
PPSVPSRLSHVL | 0.69 ± 0.034
GSDPPAPLRHPR | 0.709 ± 0.19
FGVTRSPLDPLF | 0.665 ± 0.043
IACGAGGRGFSC | 0.721 ± 0.025
DDFSHVEVFERV | 0.7 ± 0.062
FPYLLCPLFPWP | 0.665 ± 0.015
RCVGVLYVAGLE | 0.6533 ± 0.0012
GEGHVRCCFSLR | 0.699 ± 0.013
YCPLSRTQSSAR | 0.859 ± 0.18
PLTTIPSPNSLE | 0.666 ± 0.032
YPAVNLVPPPDV | 0.675 ± 0.013
PWGSGSDRAGRG | 0.746 ± 0.062
SSPPPPPPPLPL | 0.705 ± 0.023
QRCAVRSSFYVL | 0.641 ± 0.059
GGGVWWGGWGHW | 0.73 ± 0.061
RLTLTAKDNEGC | 0.733 ± 0.1
LGIEFGVADVGL | 0.786 ± 0.054
ASCGTAGPCVPF | 0.708 ± 0.019
MSKSLQTSSHKT | 0.663 ± 0.018
LTRPHPPPVRTP | 0.711 ± 0.083
SCPPVLFFPFPW | 0.705 ± 0.051

Sequence | protein stability index
FCPEGGYSVFYL | 0.719 ± 0.019
QVHNTEICVPLV | 0.679 ± 0.013
PSHPPRHCPPAA | 0.6628 ± 0.0024
QTPPPLPSPHPH | 0.635 ± 0.09
GRACCILWGGPE | 0.694 ± 0.06
DGSKRDWFYNSA | 0.725 ± 0.059
GGVLGNGCGFGR | 0.784 ± 0.065
RRLDGDLSPPIR | 0.664 ± 0.095
FGLARGMFFLTV | 0.629 ± 0.056
ALLPTLFNSGAV | 0.736 ± 0.015
PLPPPPRPPPNP | 0.665 ± 0.01
GVIQARRSASSS | 0.689 ± 0.043
FPVLFSCGYFPL | 0.792 ± 0.04
AGVPCLSVPPLG | 0.683 ± 0.031
LFPVTAIACRPS | 0.7266 ± 0.006
RHGDRLEHPIPV | 0.611 ± 0.031
PPPPRSPPHPLL | 0.69 ± 0.013
NGSGVSEDRDEK | 0.6298 ± 0.0034
GMECFSGRGSEP | 0.735 ± 0.062
KNRKTQSNQTKI | 0.719 ± 0.025
PFVPPPHRDDSP | 0.746 ± 0.082
ARSDSPRATQAN | 0.697 ± 0.06
YAVGWLLGGLWD | 0.765 ± 0.053
SVAPAPYQTAKQ | 0.744 ± 0.032
IVLSRVHLLVGP | 0.5798 ± 0.0032

Sequence | protein stability index
RGLDNSGVVAGG | 0.715 ± 0.025
GGGERFGLGGRM | 0.659 ± 0.049
GDWQGRADGAVI | 0.671 ± 0.071
SDSSRRVFDVRR | 0.705 ± 0.046
GSEVWGSPGFGG | 0.803 ± 0.0083
DVGFGWGGGVGG | 0.76 ± 0.014
SGHGFFMCLFRC | 0.552 ± 0.028
FPGLFLFVLLPG | 0.505 ± 0.013
GNFGFKVELGVR | 0.686 ± 0.031
RTFVSLLTSSSH | 0.83 ± 0.17
SSPLPPPSRAAC | 0.762 ± 0.011
GRKNPPGTTDES | 0.725 ± 0.073
EKKEKTPKPKPR | 0.685 ± 0.025
RIPHRTRLARPT | 0.6716 ± 0.0064
LVRDGQSHSVWN | 0.655 ± 0.098
PPPTPRRPPCHT | 0.668 ± 0.045
LPVVGLVPPARS | 0.5103 ± 0.003
DPPSVPSPLPTS | 0.689 ± 0.016
GRVSFFDYSRER | 0.704 ± 0.06
PINIERNKRIKR | 0.733 ± 0.021
NPQRGLNAQLFG | 0.656 ± 0.045
ARMRQNDKHDGS | 0.662 ± 0.011
IKNRRTSKYLII | 0.548 ± 0.0058
GMDGRGWGGSVV | 0.726 ± 0.038
RVPNSYELRCFR | 0.544 ± 0.038

Sequence | protein stability index
LPSARSLVSPSP | 0.74 ± 0.0092
MVYLSSQYSATT | 0.661 ± 0.039
PPSGSFLFSVHP | 0.734 ± 0.016
NFVLACYSYNYW | 0.523 ± 0.011
KKKQKYRREEKE | 0.724 ± 0.051
SLLLPPPPPSPH | 0.731 ± 0.042
CLGSGGRVSRGA | 0.6715 ± 0.0022
IKRYYLDSMKRK | 0.576 ± 0.0069
SPPPPSRLPPPP | 0.748 ± 0.096
LRSLLYDKVISL | 0.676 ± 0.055
AKKKKKKIKTKH | 0.8 ± 0.14
ISIFTCLGRFSL | 0.677 ± 0.037
GGLWPWGRVVCW | 0.687 ± 0.078
WGSSGWVGEGGG | 0.657 ± 0.044
RSARGRRGWALG | 0.712 ± 0.022
GIMNDMPSLTAT | 0.6757 ± 0.0038
PPPPLPPRPPPP | 0.704 ± 0.026
KKMKEKKKRNHA | 0.712 ± 0.035
KKKQPKKNQNPT | 0.767 ± 0.075
GGVVCWACRWEL | 0.671 ± 0.04
SPPPHPPAAPDS | 0.6626 ± 0.0058
